Columns and labels:
[1] = molecular target: MRG15 MRG polypeptide (residues 155–323), K201R background (human) (UniProt Q9UBU8); assay: ITC
[2] = molecular target: MRG15 MRG polypeptide (residues 155–323), K201R background (human) (UniProt Q9UBU8); assay: NMR titration
[3] = molecular target: MRG15 MRG L287A (human) (UniProt Q9UBU8); assay: ITC
[4] = molecular target: MRG15 MRG V227A (human) (UniProt Q9UBU8); assay: ITC
[5] = molecular target: MRG15 MRG V268A (human) (UniProt Q9UBU8); assay: ITC
[6] = molecular target: MRG15 MRG W172A (human) (UniProt Q9UBU8); assay: ITC
[7] = molecular target: MRG15 MRG M228A (human) (UniProt Q9UBU8); assay: ITC
[8] = molecular target: MRG15 MRG R201K (human) (UniProt Q9UBU8); assay: ITC
[9] = molecular target: MRG15 MRG M273A (human) (UniProt Q9UBU8); assay: ITC

Binder	Kd [1] [nM]	further results
Pf1 (aa 114–258) (domain or fragment) ELGHVNGLVDKSGKRTTSPSSDTDLLDRSASKTELKAIAHARILERRASRPGTPTSSASTETPTSEQNDVDEDIIDVDEEPVAAEPDYVQPQLRRPFELLIAAAMERNPTQFQLPNELTCTTALPGSSKRRRKEETTGKNVKKTQ	16	
ERNPTQFQLPNELT [Pf1 peptide corresponding to the tail segment (residues 219–232)]		Kd [2]: 119000 nM
DYVQPQLRRPFELLIAAAMERNPTQFQLPNELTCTTALPGSS (domain or fragment) [Pf1 MBD (MRG-binding domain, residues 200–241)]	12	Kd [3]: 407 nM; Kd [4]: 194 nM; Kd [5]: 184 nM; Kd [6]: 67 nM; Kd [7]: 75 nM; Kd [8]: 23 nM; Kd [9]: 96 nM
DYVQPQLRRPAELLIAAAMERNPTQFQLPNELTCTTALPGSS (domain or fragment) [Pf1 MBD F210A]	2600	
DYVQPQLRRPFEALIAAAMERNPTQFQLPNELTCTTALPGSS (domain or fragment) [Pf1 MBD L212A]	35	
DYVQPQLRRPFELAIAAAMERNPTQFQLPNELTCTTALPGSS (domain or fragment) [Pf1 MBD L213A]	280	
DYVQPQLRRPFELLIAAAMEREPTQFQLPNELTCTTALPGSS (domain or fragment) [Pf1 MBD N221E]	15	
DYVQPQLRRPFELLIAAAMERNPTQAQLPNELTCTTALPGSS (domain or fragment) [Pf1 MBD F225A]	19000	
DYVQPQLRRPFELLIAAAMERNPTQFQAPNELTCTTALPGSS (domain or fragment) [Pf1 MBD L227A]	370	
DYVQPQLRRPFELLIAAAMERNPTQFQLANELTCTTALPGSS (domain or fragment) [Pf1 MBD P228A]	85	

From publication PMC3259534
